The series deals with XhoI. In words: cleavage_in_vitro. The conditions noted are these: 5'-dithiol on upper strand, tethered to 20 nm Au nanoparticle; rate constant at 3.5 nM enzyme (1.5e-3 s-1 at 350 pM); Mg2+ required, inhibited by 10 mM EDTA.

For the sequence “AAAGGATCCAAGCTTGAATTCCTCGAGAGATCTGTCGACGATATCGGTACCAAA (double strand) [54-bp ruler dsDNA]”, the activity stood at 0.0058 s⁻¹.

Values taken from patent publication US20100323906.
